Experimental findings from the DeepSol protein solubility set are described below.

The nature of the data set: soluble on expression in E. coli; label from the status in PepcDB or PDB records.
Turning to “SSESKQDEDSGTSASLSKASKETSCKRQNREGSWDSSLVMKKPKQNQVSTVTDSEVALVSAYLEQRRVRRHSQFLRVNQIQQDSDTTECDSEESNSGASSWKESESDHHLSPANIKRRKSVSRQRDMENYEVRQRPCLHCKAMRTREWLTRHFPPSASVTTPMKGEIQEENLTPGTNTKFSKF”, the “soluble on expression in E. coli” value is reported as “soluble”. Take “SLGNGMNKILPGLYIGNFKDARDAEQLSKNKVTHILSVHDSARPMLEGVKYLCIPAADSPSQNLTRHFKESIKFIHECRLRGESCLVHCLAGVSRSVTLVIAYIMTVTDFGWEDALHTVRAGRSCANPNVGFQRQLQEFEKHEVHQ”: the “soluble on expression in E. coli” value was “not soluble”. The entry for “MLTFVSPVFGAPKKRKWFSKLSGKQLCCFRCVSCLQVEQPSRSHPNYWRNIAREVNKTLKEHSLEANNPINVTDEDSSVFVDTTTDEREEGGPTFIQQSSRVQLDSAEISHSNSMTTDSHSLYQNNSPNSTGMEEEPSDYSVQFSTSWNPNTSWLQFPDLVESADIRRKTQEISKHQKEDVFKYYIDSENNLRPFHDAISPMHIFSKESETQTVSEPSAWENWHQLSQKGNEDSSSLDESLDDEWSEIDRWRPVAVELEGYNPKLTEDTSEEVRIEKNKLSKRREAVAWQKWFSTQQYNLSSELWERRIGVTGKDCDKNTSIYKQWLADMEQGLEP” is “not soluble”; for “METEDHAFRIEDIFPFLDPYVSKWFDINYRSLTEPQKYAIPFIHEGRNVLVSSPTGTGKTLTAFLSIINELFMLARSGKLEDKIYCVYISPLKALANDVNKNLRAPLEGIYKIADEDGINLPKIRVSVRSGDTSEGERQKMARKPPHILITTPESFSLTLSSPRMRENLRDVKYVIIDEIHEISSTKRGSLLSANMERLEALRPGILRIGLSATQSP” it is “not soluble”. As for “SLDICSKNPCHNGGLCEEISQEVRGDVFPSYTCTCLKGYAGNHCETKCVEPLGMENGNIANSQIAASSVRVTFLGLQHWVPELARLNRAGMVNAWTPSSNDDNPWIQVNLLRRMWVTGVVTQGASRLASHEYLKAFKVAYSLNGHEFDFIHDVNKKHKEFVGNWNKNAVHVNLFETPVEAQYVRLYPTSCHTACTLRFELLGCELNGCANPLGLKNNSIPDKQITASSSYKTWGLHLFSWNPSYARLDKQGNFNAWVAGSYGNDQWLQVDLGSSKEVTGIITQGARNFGSVQFVASYKVAYSNDSANWTEYQDPRTGSSKIFPGNWDNHSHKKNLFETPILARYVRILPVAWHNRIALRLELLGC”, the “soluble on expression in E. coli” value is “soluble”. Turning to “MMLPKEIMMPNDNPYALHRVKVLKVYSLTETEKLFLFRFEDPELAEKWTFKPGQFVQLTIPGVGEVPISICSSPMRKGFFELCIRKAGRVTTVVHRLKPGDTVLVRGPYGNGFPVDEWEGMDLLLIAAGLGTAPLRSVFLYAMDNRWKYGNITFINTARYGKDLLFYKELEAMKDLAEAENVKIIQSVTRDPNWPGLKGRPQQFIVEANTNPKNTAVAICGPPRMYKSVFEALINYGYRPENIFVTLERRMKCGIGKCGHCNVGTSTSWKYICKDGPVFTYFDIVSTPGLLD”, the “soluble on expression in E. coli” value is listed as “not soluble”. The entry for “MAHHHHHHMALLEWARQDATMKSSLELYCGPASKDLMIMDIPANVAVDAYLWEGLLVAESMLEADGTLLVVSPHAFSVRVRRFLQWRFLRAQCAVSEAGAVHYAVCSTVAAGFGDAAVRRDDFPGQLATGKRRPCKWNPYRRPEKRKFVASLRPWFTNAPFVKDALRCSLERERDAQERLRDADDAFFAVAHEMVEKGVHYSHPND” is “not soluble”; for “MVEKPVVIKFGGTSVRYAFEEALELVAKLHENMKIIVVVSALAGVTDCLLRLAKGDKSALLEIDEIHEELSQELNVQLEHLIHQLKKTINSKSSFPSEKAFIDEIASFGERFSAKLFSEGLKILGITARPVDSKDVLFVKGEFGNAEVEFKKSAQGVDVLYRMLRRGIVPVVTGYYGNLNGFRATFGRGGSDYSATSIASLVNAKAVLIMSDVEGIYTADPKLVPPARLIHYISYKEAKTAAKLGMKVLHPRAIDPVEGKIPVILGKTRDLKFGTLISHESQGIPIVTHKLLENHAEISVVSVKTNIPLPYEVYEEGDLYFKIKTSKDQFLEVLRDVHRRVVENENLHSSHDGELWTWVLEHHHHHH” it is “not soluble”.

On to “MLQVRMLLRIPTVLRSQELIDKAFSRASRIEEPYFPDKIERIRKEVQDRISTIESISRSFLDRLVKKFPSINNLHPFYSSLIDLMFDIDQYKISLSKIDRTSQMIEQISGEHIRRLKAAKTVEDANRIMRSYYGRFASLVHEIDQDLLFLGKCRDYMKKIPDIDVNLRTYIIAGMPNVGKSSLLAALTTKKPEIAPYPFTTKSVIIGIAEHGYERIQFIDTPGILDRDFDEMNQIEKNAVLALRHIKGTVIFLFDYSDQSLYDPEMQEHLYQQIREHINPDIIRVQTKMDISREKREKIAISVNSEGGLDPLKAIIFGRADDDVRRLEHHHHHH”, for which the “soluble on expression in E. coli” value is reported as “not soluble”.

With “MKVIMTTKVDKASMNIMNKLIENFGFKETEYVFDGNPVYKRGDVLILTTNDEMIYYDYLDREIENQLGFKPEIIAFASRHSSKQKLPALTTHVTGNWGKAMYGGKDESFAVAIPSAMKLSLLKMSELNDLGWTVCYEATHHGPTELEVPSFFIEIGSSEEEWINDRAGEIIAETIIYVLDNYEKGRSKFKVALGIGGGHYAPKQTKRALEGDLAFGHILPKYAQPVSRDVMIKALNRFGEKVEAIYVDWKGSRGETRQLAKSLAQELGLEFIKD”, the “soluble on expression in E. coli” value is listed as “soluble”. Under “MTTPFTHETLPADPKAAIRQMKQALRAQIGDVQAVFDRLSATIAARVAEINDLKAQGQPVWPIIPFSELAMGNISDATRAEVKRRGCAVIKGHFPREQALAWDQSMLDYLDKNHFDEVYKGPGDNFFGTLSASRPEIYPVYWSQAQMQARQSEEMALAQSFLNRLWQVEHDGKRWFNPDISIIYPDRIRRRPPGTTSKGLGAHTDSGALERWLLPAYQQVFASVFNGNVEQYDPWNAAHRTDVEEYTVDNTTKCSVFRTFQGWTALSDMLPGQGLLHVVPIPEAMAYILLRPLLDDVPEDELCGVAPGRVLPISEQWHPLLMAALTSIPPLEAGDSVWWHCDVIHSVAPVENQQGWGNVMYIPAAPMCEKNLAYARKVKAALETGASPGDFPREDYETTWEGRFTLRDLNIHGKRALGIDV” stands “soluble”. The entry for “MKTLQDSIIFRHGAKIKGRIVQPPMLTNSGNDGYVTQDALDYYAARSQSAGMIIVEYTTVSENGGPSRSWARDREQLTIYDDKFKPGMAKLATVIKKMGIKLYYNWSIPVEKLIISLNWVSRFMHQVR” is “not soluble”; for “MSLKMRVYYEDTDAGGVVYHSNYLKFCERARSEIFFNKKVDIFDASKGHFLLAKANCNFLKPAKLGDMIEIKTKILEVKNASVEILQEIYKDEILLFKMELTLAFIKNEKPARMDMQLKKLFEELFEGGSHHHHHH” it is “soluble”. As for “MSLDSTTIIIYGEKLSDSQRAEVKELLEISDQEMVEEHDVTGQDYADYINGNPRSNMYSSAGIILESQGAGLEVNIVTPENITEVTAEMYENALLTAGAENATVNVVSPVQVSGHSALTGIYKAYDVEGEQLDKERMELANEELNVATDLVDNGDVNQEEVSNLLTEIKKMIAEQNPATREDVEQIVSEQLDQLEINLSEQDRQMLVDLFDKMKDLEIDFGAVKEQLDSITNSIVEKAEDLGLDEGFWDKVANFFRDLFRSIGNLFGEGHHHHHH”, the “soluble on expression in E. coli” value is “soluble”. Regarding “MGSDKIHHHHHHMEHLHRKQITNTFTETFPGDLSMNNTTRQTPGVLYCSVLPTPVHHPQLLAWSADVAEMLGLESPVPEDVLILGGNTVNPTMKPYASCYAGHQFGNWAGQLGDGRAISLGFCSGKDSMEYELQLKGAGPTPYSRNSDGRAVLRSSLREYLMSEAMHYLGVPTTRALSLVSTGDAVLRDMFYNGHAAYEPGAVVLRVAPSFIRFGNFEILAERNNRDLSQQLCDWVITRYYPEIRGEDRVVQLFQAVAERTADMVVQWLRVGFVHGVMNTDNMSILGVTIDYGPYSFVDEYDARFTPNTTDLPGRRYAFGNQAAVAYWNLGRLANALAFLVPETDKLVAVLKNYQDVYETKYYTMMANKLGFDALREDDRLLIDSFEEMLRTVKPDMTMFYQLLIDLPADPGTAADVKQFFQSCFYTEADEALLHTCIAAYSKRIKTNTCSKEVSAEKMRAANPRFVLRNYILHEAIEKLEKGDDALLKKLEEYIKQPYSKNADEYFIKRPDWAAQKAGCSMLSCSS”, the “soluble on expression in E. coli” value is given as “not soluble”. “MFEKVKVSTCFHVTLLKDYIVFYVSNNLNFASRWPRRRRGQRLLPTALRAMMLNPTEALLAEVSKARTSGARITVEEFIPIYKKVEAACGRSTTLKEFQTLLSHFDREGNGQIMLMELKSMLQNGGEKMTNQEARALKPATGLDTIYRNLNFNHKFTLDHSAIGFLRTNQFFDVQMIPVSRFFTVQDPSNALLSYTQKGIDFFEKLGQFSKEKAAIEEEYSTKLRSLAKKYAKKSEEDDEILKSVSYTSSFNSFLQQLDQIATRHQTSAEHIRGGVVSYVASKTCQMRSSRKNAINDLKTINDKLEDQINEMCKSGKCYLKSFKDAENSYQKFYKADKNLEISRLELEKARALANARNEACELAKQDYSALVRKTNAEQKRYHVELLPVIFARLKAVDKECIADMRQVLQKIVSFDDSLADSTEECRKIMQREVGKIDAEGDAQLVLKSVEATIEQPAPFEIEDLGDPKNCDSRTNDSADGSGGKLLKSSPSKNRIIRNFLGILKEKEADEKPEASNNDQLMYTDKSKPAHVRLSCLRSKIRDMEKQLEQAIQGREGITRLQQAYYTNPQHGNPSACTEPLISYAKKIEKLKMDIHNLKEFYAMLEMSVEEGQERSFGGRDTPDTTRSMSGSSTNQSSSKTIEDVLSGEAGNSSSADDSSKNILRQLFTTPKRLISSPKTSKSSTPTPLRRRAEISSPKILRSSFSGAIRKSLSTPDSVKVETAVTVTALFEFAKSSAETMSIEQGEILLVLEHDHGDGWTRTKNCRKHNEESGFVPTSYLQFPQ”: the “soluble on expression in E. coli” value is reported as “soluble”. The entry for “MGSDKIHHHHHHMINKHVISEKIKKAIVEANIKINPEVEEIIERYEGPFSDIIKENYRVSKEEKLPLCQDTGIVEFFVFIGHEVKLEEPIEETLNRAVGEVYSEYPFRYSVVSDPLFERINTGTNTPAIVHIFQVKGKSLEIRFLVKGGGSENLTVLRMMTPTSDVEKVKEFVIEHIKEHGAKACPPLHVGIGIGGTADKALLLSKLALTKSFKERNKDPKYAGLEKELEKELNFLGIGFQGLGKGITVYSVHIEHFPTHIATLPVAVSVDCYLCRRGKVTFED” is “not soluble”; for “MGFLQRIGLLPQVTTTPTQHELLAPLLDTYIGVVTEMPTEELFAEQPHLRTVTTFIARAISSTSLHVYRRDSDGGRHRVRDSDLAKLMRRSSKTELMQDMLNGSILDLCLYDEFIWVAMEDSDSGEWELHRIPPTWIKQRKHSDPWTLEWMGIIDAKTGQQIKIPAERIIHVHGYNPTSTSRGLTPVVALRETLKEQLESAAYRGQLWRNGPRLGGVITRPKDAKWDSTSRKRFKAAWQSQYSGRGSGAGGTPILEDGMQFVPAHLKAQDEQVVEMTKLSLQTVASIYHVNPVMVGLLDNANYSNVREFRRSLYGDSLGPIIKQVEGVINEFLRPMIDDDDAVYVEFNLDEKLRASFEEKAAVTSTAVGGPWMTRNEARAMNNLPAIDGGEDLITPLNVTTENSESNNDVGLEEES” it is “not soluble”; for “MSLQSKEDFIEMRVPASAEYVSLIRLTLSGVFSRAGATYDDIEDAKIAVSEAVTNAVKHAYKENNNVGIINIYFEILEDKIKVVISDKGDSFDYETTKSKIGPYDKDENIDFLREGGLGLFLIESLMDEVTVYKESGVTISMTKYIKKEQVRNNGERVEISEGHHHHHH” it is “soluble”. The entry for “SLPTLVTTQASDIDGSTLLSSQKGSGLGDCDSDARWTWDGRRFVPTSTSTSGLCRLVAAGGAWELPTLVTEVKSSP” is “soluble”.
